According to paper PMC6340114, “The kinetic characteristics of human and trypanosomatid phosphofructokinases for the reverse reaction” (Biochemical Journal, 2018):

Tests used:
[1] = target: Trypanosoma cruzi phosphofructokinase (T. cruzi (strain CL Brener)); assay: SEC; preparative gel filtration of IMAC eluate on HiPrep Sephacryl S-200 16/60; 20 mM TEA, 5 mM MgCl2, 50 mM KCl, 10% glycerol, pH 7.4; tetrameric fractions collected
[2] = target: the molecule itself; assay: as above
[3] = target: the molecule itself; assay: SEC; preparative size exclusion of IMAC eluate on Superose 6 10/300; 50 mM TEA, 500 mM KCl, 5 mM MgCl2, 1 mM TCEP, 1 mM ATP/F6P, 10% glycerol, pH 8; fractions corresponding to the tetramer (340 kDa) pooled
[4] = target: the molecule itself; assay: SEC; preparative size exclusion of IMAC eluate on HiPrep Sephacryl S300 16/600; 50 mM TEA, 500 mM KCl, 5 mM MgCl2, 1 mM TCEP, 1 mM ATP/F6P, 10% glycerol, pH 7.4; fractions corresponding to the tetramer (340 kDa) pooled

Q: With “Trypanosoma cruzi phosphofructokinase (enzyme)” as the molecule, how does the stoichiometry N [1] read?
A: Its stoichiometry N is 4.

B1: Trypanosoma brucei phosphofructokinase (enzyme, T. b. brucei (strain Lister 427), UniProt O15648 1-487, looked up)
chain: MAVESRSRVTSKLVKAHRAMLNSVTQEDLKVDRLPGADYPNPSKKYSSRTEFRDKTDYIMYNPRPRDEPSSENPVSVSPLLCELAAARSRIHFNPTETTIGIVTCGGICPGLNDVIRSITLTGINVYNVKRVIGFRFGYWGLSKKGSQTAIELHRGRVTNIHHYGGTILGSSRGPQDPKEMVDTLERLGVNILFTVGGDGTQRGALVISQEAKRRGVDISVFGVPKTIDNDLSFSHRTFGFQTAVEKAVQAIRAAYAEAVSANYGVGVVKLMGRDSGFIAAQAAVASAQANICLVPENPISEQEVMSLLERRFCHSRSCVIIVAEGFGQDWGRGSGGYDASGNKKLIDIGVILTEKVKAFLKANKSRYPDSTVKYIDPSYMIRACPPSANDALFCATLATLAVHEAMAGATGCIIAMRHNNYILVPIKVATSVRRVLDLRGQLWRQVREITVDLGSDVRLARKLEIRRELEAINRNRDRLHEELAKL
notes: ATP-dependent phosphofructokinase of Trypanosoma brucei brucei, DNA source strain Lister 427, codon optimised for E. coli; Tag removal was only partially successful; the tagged protein was used for all experiments; also called TbPFK; T. brucei PFK; source: E. coli C41 (DE3), pET28a, purified (cobalt IMAC, Sephacryl S-200 gel filtration); not shown: His6, N-terminal, kept
Q: How did the “stoichiometry N” value [2] turn out when B1 was run?
A: The value was 4.

B2: human phosphofructokinase isoform PFK-L (enzyme, UniProt P17858 1-780, looked up)
chain: MAAVDLEKLRASGAGKAIGVLTSGGDAQGMNAAVRAVTRMGIYVGAKVFLIYEGYEGLVEGGENIKQANWLSVSNIIQLGGTIIGSARCKAFTTREGRRAAAYNLVQHGITNLCVIGGDGSLTGANIFRSEWGSLLEELVAEGKISETTARTYSHLNIAGLVGSIDNDFCGTDMTIGTDSALHRIMEVIDAITTTAQSHQRTFVLEVMGRHCGYLALVSALASGADWLFIPEAPPEDGWENFMCERLGETRSRGSRLNIIIIAEGAIDRNGKPISSSYVKDLVVQRLGFDTRVTVLGHVQRGGTPSAFDRILSSKMGMEAVMALLEATPDTPACVVTLSGNQSVRLPLMECVQMTKEVQKAMDDKRFDEATQLRGGSFENNWNIYKLLAHQKPPKEKSNFSLAILNVGAPAAGMNAAVRSAVRTGISHGHTVYVVHDGFEGLAKGQVQEVGWHDVAGWLGRGGSMLGTKRTLPKGQLESIVENIRIYGIHALLVVGGFEAYEGVLQLVEARGRYEELCIVMCVIPATISNNVPGTDFSLGSDTAVNAAMESCDRIKQSASGTKRRVFIVETMGGYCGYLATVTGIAVGADAAYVFEDPFNIHDLKVNVEHMTEKMKTDIQRGLVLRNEKCHDYYTTEFLYNLYSSEGKGVFDCRTNVLGHLQQGGAPTPFDRNYGTKLGVKAMLWLSEKLREVYRKGRVFANAPDSACVIGLKKKAVAFSPVTELKKDTDFEHRMPREQWWLSLRLMLKMLAQYRISMAAYVSGELEHVTRRTLSMDKGF
notes: human ATP-dependent phosphofructokinase, liver type (PFK-L1), yeast codon optimised cDNA; also called PFK-L1; source: PFK-deficient Saccharomyces cerevisiae, plasmid pJJH71, purified (nickel IMAC, Superose 6 size exclusion)
Q: B2 was tested. Which “stoichiometry N” value [3] did it give?
A: The value was 4.

B3: human phosphofructokinase isoform PFK-P (enzyme, UniProt Q01813 1-784, looked up)
chain: MDADDSRAPKGSLRKFLEHLSGAGKAIGVLTSGGDAQGMNAAVRAVVRMGIYVGAKVYFIYEGYQGMVDGGSNIAEADWESVSSILQVGGTIIGSARCQAFRTREGRLKAACNLLQRGITNLCVIGGDGSLTGANLFRKEWSGLLEELARNGQIDKEAVQKYAYLNVVGMVGSIDNDFCGTDMTIGTDSALHRIIEVVDAIMTTAQSHQRTFVLEVMGRHCGYLALVSALACGADWVFLPESPPEEGWEEQMCVKLSENRARKKRLNIIIVAEGAIDTQNKPITSEKIKELVVTQLGYDTRVTILGHVQRGGTPSAFDRILASRMGVEAVIALLEATPDTPACVVSLNGNHAVRLPLMECVQMTQDVQKAMDERRFQDAVRLRGRSFAGNLNTYKRLAIKLPDDQIPKTNCNVAVINVGAPAAGMNAAVRSAVRVGIADGHRMLAIYDGFDGFAKGQIKEIGWTDVGGWTGQGGSILGTKRVLPGKYLEEIATQMRTHSINALLIIGGFEAYLGLLELSAAREKHEEFCVPMVMVPATVSNNVPGSDFSIGADTALNTITDTCDRIKQSASGTKRRVFIIETMGGYCGYLANMGGLAAGADAAYIFEEPFDIRDLQSNVEHLTEKMKTTIQRGLVLRNESCSENYTTDFIYQLYSEEGKGVFDCRKNVLGHMQQGGAPSPFDRNFGTKISARAMEWITAKLKEARGRGKKFTTDDSICVLGISKRNVIFQPVAELKKQTDFEHRIPKEQWWLKLRPLMKILAKYKASYDVSDSGQLEHVQPWSV
notes: human ATP-dependent phosphofructokinase, platelet type (PFK-P1), yeast codon optimised cDNA; also called PFK-P1; source: PFK-deficient Saccharomyces cerevisiae, plasmid pJJH71, purified (nickel IMAC, Superose 6 size exclusion)
Q: How did the “stoichiometry N” value [3] turn out when B3 was run?
A: The value was 4.

B4: human phosphofructokinase isoform PFK-M (enzyme, UniProt P08237 1-780, looked up)
chain: MTHEEHHAAKTLGIGKAIAVLTSGGDAQGMNAAVRAVVRVGIFTGARVFFVHEGYQGLVDGGDHIKEATWESVSMMLQLGGTVIGSARCKDFREREGRLRAAYNLVKRGITNLCVIGGDGSLTGADTFRSEWSDLLSDLQKAGKITDEEATKSSYLNIVGLVGSIDNDFCGTDMTIGTDSALHRIMEIVDAITTTAQSHQRTFVLEVMGRHCGYLALVTSLSCGADWVFIPECPPDDDWEEHLCRRLSETRTRGSRLNIIIVAEGAIDKNGKPITSEDIKNLVVKRLGYDTRVTVLGHVQRGGTPSAFDRILGSRMGVEAVMALLEGTPDTPACVVSLSGNQAVRLPLMECVQVTKDVTKAMDEKKFDEALKLRGRSFMNNWEVYKLLAHVRPPVSKSGSHTVAVMNVGAPAAGMNAAVRSTVRIGLIQGNRVLVVHDGFEGLAKGQIEEAGWSYVGGWTGQGGSKLGTKRTLPKKSFEQISANITKFNIQGLVIIGGFEAYTGGLELMEGRKQFDELCIPFVVIPATVSNNVPGSDFSVGADTALNTICTTCDRIKQSAAGTKRRVFIIETMGGYCGYLATMAGLAAGADAAYIFEEPFTIRDLQANVEHLVQKMKTTVKRGLVLRNEKCNENYTTDFIFNLYSEEGKGIFDSRKNVLGHMQQGGSPTPFDRNFATKMGAKAMNWMSGKIKESYRNGRIFANTPDSGCVLGMRKRALVFQPVAELKDQTDFEHRIPKEQWWLKLRPILKILAKYEIDLDTSDHAHLEHITRKRSGEAAV
notes: human ATP-dependent phosphofructokinase, muscle type (PFK-M1), yeast codon optimised cDNA; also called PFK-M1; source: PFK-deficient Saccharomyces cerevisiae, plasmid pJJH71, purified (nickel IMAC, Sephacryl S300 size exclusion)
Q: Which “stoichiometry N” value [4] does the source give for B4 here?
A: The value was 4.
